Assay results published in article PMC12102759.

B1: PIP5K1C peptide 640-655 (Phosphatidylinositol 4-phosphate 5-kinase type-1 gamma), 16-mer library wild type / TLN1 PTB (TLN1 Phosphotyrosine-binding (PTB) domain, residues 309-401) (parent)
chain 1: FPTDERSWVYSPLHYS
chain 2: GVSFFLVKEKMKGKNKLVPRLLGITKECVMRVDEKTKEVIQEWNLTNIKRWAASPKSFTLDFGDYQDGYYSVQTTEGEQIAQLIAGYIDIILK

Variants of: B1
Test: proteomic peptide phage display deep mutational scan (ProP-PD DMS): M13 P8 16-mer library selected against immobilised GST-tagged bait for four days (rounds), NGS of the eluted pools per day and pseudo-replica
Conditions: with TLN1 PTB (TLN1 Phosphotyrosine-binding (PTB) domain, residues 309-401); bait immobilised on MaxiSorp plates (10 µg), library pre-cleared on GST, 2 h binding at 4 °C, five washes; one round per day, days 1-4; value from days 2 and 3; keep out of graded; scale: average fractional NGS count over selection days 2 and 3
Variant chain 1 FPTDEMSWVYSPLHYS has a screen value of 0.00014. chain 1 FPTDEYSWVYSPLHYS gave a screen value of 0.000115. With chain 1 FPTDEISWVYSPLHYS the screen value was 0.000686. Variant chain 1 FPTDEFSWVYSPLHYS has a screen value of 0. Variant chain 1 FPTDEHSWVYSPLHYS has a screen value of 3.76e-05. With chain 1 FPTDEGSWVYSPLHYS the screen value was 5.92e-05. chain 1 FPTDERSWVRSPLHYS showed a screen value of 0.000894. For chain 1 FPTDERSWVISPLHYS, the screen value was 0.000546. Variant chain 1 FPTDERSWVDSPLHYS has a screen value of 0.000521. Variant chain 1 FPTDERSWVNSPLHYS has a screen value of 0.000216. chain 1 FPTDERSWVPSPLHYS gave a screen value of 0.000394. Variant chain 1 FPTDERSWVTSPLHYS has a screen value of 0.00117. With chain 1 FPTDERSWVWSPLHYS the screen value was 8.84e-05. chain 1 FPTDERSWVSSPLHYS was tested, and the screen value was 0.00342. Work on chain 1 FPTDERSWVHSPLHYS yielded a screen value of 6.93e-05. chain 1 FPTDERSWVASPLHYS gave a screen value of 0.000303. Work on chain 1 FPTDERSWVFSPLHYS yielded a screen value of 0.000662. In the case of chain 1 FPTDERSWVLSPLHYS, the screen value is reported as 0.000358. chain 1 FPTDERSWVKSPLHYS was tested, and the screen value was 0.00109. In the case of chain 1 FPTDERSWVVSPLHYS, the screen value is reported as 0.000724. chain 1 FPTDERSWVMSPLHYS showed a screen value of 0.00032. Work on chain 1 FPTDERSWVQSPLHYS yielded a screen value of 0.000754. chain 1 FPTDERSWVYSPLHWS showed a screen value of 0.000911. For chain 1 FPTDERSWVYSPLHIS, the screen value was 0.000186. Variant chain 1 FPTDERSWVYSPLHTS has a screen value of 0.000245. With chain 1 FPTDERSWVYSPLHVS the screen value was 0.000186. Variant chain 1 FPTDERSWVYSPLHKS has a screen value of 0.000895. In the case of chain 1 FPTDERSWVYSPLHPS, the screen value is reported as 0.000167. In the case of chain 1 FPTDERSWVYSPLHMS, the screen value is reported as 0.000141. Work on chain 1 FPTDERSWVYSPLHLS yielded a screen value of 3.79e-05. chain 1 FPTDERSWVYSPLHDS showed a screen value of 0.00126. Work on chain 1 FPTDERSWVYSPLHNS yielded a screen value of 5.2e-05. For chain 1 FPTDERSWVYSPLHSS, the screen value was 0.000401. For chain 1 FPTDERSWVYSPLHHS, the screen value was 0.000526. chain 1 FPTDERSWVYSPLHAS gave a screen value of 0.000656. chain 1 FPTDERSWVYSPLHFS gave a screen value of 0.00152. With chain 1 FPTDERSWVYSPLHES the screen value was 0.000347. Work on chain 1 FPTDERSWVYSPLHGS yielded a screen value of 0.00057. chain 1 FPTDERSWVYSPLHQS showed a screen value of 0.000147. Work on chain 1 FPWDERSWVYSPLHYS yielded a screen value of 0.000436. Work on chain 1 FPRDERSWVYSPLHYS yielded a screen value of 0.000107. Work on chain 1 FPADERSWVYSPLHYS yielded a screen value of 8.91e-05. In the case of chain 1 FPYDERSWVYSPLHYS, the screen value is reported as 0.000733. With chain 1 FPGDERSWVYSPLHYS the screen value was 9.69e-05. With chain 1 FPPDERSWVYSPLHYS the screen value was 0.000173. chain 1 FPMDERSWVYSPLHYS showed a screen value of 2.4e-05. chain 1 FPNDERSWVYSPLHYS was tested, and the screen value was 8.2e-05. In the case of chain 1 FPQDERSWVYSPLHYS, the screen value is reported as 0.000354. chain 1 FPVDERSWVYSPLHYS showed a screen value of 4.5e-05. chain 1 FPHDERSWVYSPLHYS gave a screen value of 0.000204. chain 1 FPDDERSWVYSPLHYS gave a screen value of 5.93e-05. chain 1 FPLDERSWVYSPLHYS gave a screen value of 0.00116. chain 1 FPSDERSWVYSPLHYS gave a screen value of 0.00018. With chain 1 FPIDERSWVYSPLHYS the screen value was 5.15e-05.
